From article PMC9313494

Target: Lys-Nle peptide
Assay: SPR; Lys-Nle peptide immobilised via its terminal thiol group on a CM5 chip (1123.9 RU); BMP-2 flown at increasing concentrations in PBS-T at 50 µL/min; regeneration with Gly-HCl pH 1.5; nonfunctionalized reference channel; Langmuir fit (BIAevaluation)

B1: bone morphogenetic protein-2 (BMP-2) (ligand)
chain: QAKHKQRKRLKSSCKRHPLYVDFSDVGWNDWIVAPPGYHAFYCHGECPFPLADHLNSTNHAIVQTLVNSVNSKIPKACCVPTELSAISMLYLDENEKVVLKNYQDMVVEGCGCR
- Kd: 36.6 nM
